Data taken from patent US20160289270A1, “Methods, Peptides and Antibodies for Preventing, Treating and Diagnosing an Inflammatory Condition” (WESTFAELISCHE WILHELMS-UNIVERSITAET MUENSTER, priority 2013, published 2016).

target: T1, his-tagged rhTLR4/MD2 (Homo sapiens, UniProt O00206+Q9Y6Y9); experiment: Immunoprecipitation on TLR4/MD2-coupled beads, eluates analysed by MALDI-TOF mass spectrometry; format: binding; settings: beads with TLR4/MD2, 3 h at 4° C., 1 mM Calcium, elution with 10 mM TRIS/2 mM EDTA
T1 construct: purchased R&D SYSTEMS
T1 sequence (O00206 24-631 limits assumed): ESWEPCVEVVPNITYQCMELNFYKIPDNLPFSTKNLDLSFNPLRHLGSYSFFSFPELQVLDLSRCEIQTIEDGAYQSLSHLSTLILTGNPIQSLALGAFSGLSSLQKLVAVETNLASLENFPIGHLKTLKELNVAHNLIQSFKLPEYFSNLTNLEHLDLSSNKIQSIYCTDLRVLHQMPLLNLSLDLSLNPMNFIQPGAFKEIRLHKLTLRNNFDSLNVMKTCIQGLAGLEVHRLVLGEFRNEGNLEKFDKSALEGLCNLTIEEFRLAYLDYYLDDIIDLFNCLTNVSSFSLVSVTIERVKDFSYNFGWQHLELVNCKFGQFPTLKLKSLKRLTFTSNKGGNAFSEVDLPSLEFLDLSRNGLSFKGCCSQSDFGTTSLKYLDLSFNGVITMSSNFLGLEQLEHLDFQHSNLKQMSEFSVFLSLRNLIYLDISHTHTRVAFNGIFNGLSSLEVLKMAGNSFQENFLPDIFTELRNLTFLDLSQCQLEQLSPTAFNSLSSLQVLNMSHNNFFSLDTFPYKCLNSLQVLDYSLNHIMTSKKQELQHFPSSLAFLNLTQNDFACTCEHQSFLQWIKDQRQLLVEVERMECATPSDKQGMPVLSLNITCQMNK
T1 sequence (Q9Y6Y9 17-160 limits assumed): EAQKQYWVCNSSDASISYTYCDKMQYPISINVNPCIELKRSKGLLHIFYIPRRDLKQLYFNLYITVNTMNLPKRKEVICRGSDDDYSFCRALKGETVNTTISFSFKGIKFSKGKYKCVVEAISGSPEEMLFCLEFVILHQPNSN
Protocol: Anti-His antibody (5 μL, 0.5 mg/mL, Invivogen) and his-tagged rhTLR4/MD2 (5 μL, 1 mg/mL, carrier free, R&D SYSTEMS) were mixed and coupled to Protein A/G Agarose ([…], Thermo Scientific). Trypsin digested peptides of S100A9 were added for 3 h at 4° C. in the presence of 1 mM Calcium. After washing of the beads in HBS/1 mM Ca-buffer for three times bound peptidic fragments were eluted by addition of 10 mM TRIS/2 mM EDTA-buffer and analysed by ESI and MALDI-TOF-mass spectrometry. Identical experiments were performed to analyze the binding of the chemical synthesized peptides of S100A9 (aa63-79), S100A8 (aa55-71) and the corresponding control peptides aa63-79 A5 and aa55-71 A3.

| Molecule | binding to TLR4/MD2 (peptide detected in eluate by MALDI-TOF mass spectrometry) |
| --- | --- |
| 55-71: synthetic peptide, positions 55-71 of human S100A8, complete C-terminal EF hand, FKELDINTDGAVNFQEF | able to bind to TLR4/MD2 |
| 63-79 A5: control peptide, S100A9 positions 63-79 with E64A, D65A, Q73A, E77A and K72A exchanged to alanine (MAALDTNADAALSFAEF) [reference compound] | no binding could be detected |
| 63-79: synthetic peptide, amino acid positions 63-79 of S100A9, complete C-terminal EF hand, MEDLDTNADKQLSFEEF | able to bind to TLR4/MD2 |
| No. 15: tryptic fragment of human S100A9, amino acid sequence from positions 73 to 85, portion of the C-terminal EF Hand (QLSFEEFIMLMAR; UniProt P06702 73-85, looked up, fragment) | specific interaction with TLR4/MD2 |

target: TLR4/MD2 (Homo sapiens, UniProt O00206+Q9Y6Y9); experiment: Modified S100A9-ELISA: binding of S100A9-wt and mutant proteins to plate-coupled TLR4/MD2; settings: 2 μg/ml protein, two hours at room temperature, absorbance at 450 nm, FIG. 4B/4C
Sequence (O00206 24-631 limits assumed): as the sequence (O00206 24-631 limits assumed) above
Sequence (Q9Y6Y9 17-160 limits assumed): as the sequence (Q9Y6Y9 17-160 limits assumed) above
Protocol: Binding of S100A9 proteins to TLR4/MD2 was analysed by a modified S100A9-ELISA. Briefly, TLR4/MD2 was coupled to the wells of a 96-well plate and served as capturing molecule. After blocking of the unspecific binding sites by PBS/5% skim milk powder plates were washed three times. S100A9-wt or mutant S100A9 proteins were added at a concentration of 2 μg/ml each in the presence and absence of 100 μM Calcium and incubated for two hours at room temperature. Unbound S100A9 was removed by washing the plates for three times followed by the addition of a primary anti-S100A9-antibody (1 μg/ml, polyclonal, rabbit). After a washing step the secondary anti-rabbit-IgG-antibody coupled to HRP (1 μg/ml from Cell Signalling) was added. TMB was used as substrate for HRP to quantify binding by absorbance readings at 450 nm in an ELISA reader (Anthos Mikrosysteme).

| Molecule | binding to the receptor TLR4/MD2 compared to non-mutated protein (S100A9 wt) |
| --- | --- |
| S100A9E64A: purified recombinant S100A9 mutant, alanine instead of E64 (protein) MTCKMSQLERNIETIINTFHQYSVKLGHPDTLNQGEFKELVRKDLQNFLKKENKNEKVIEHIMADLDTNADKQLSFEEFIMLMARLTWASHEKMHEGDEGPGHHHKPGLGEGTP | weaker binding |
| S100A9R85A: purified recombinant S100A9 mutant, alanine instead of R85 (protein) MTCKMSQLERNIETIINTFHQYSVKLGHPDTLNQGEFKELVRKDLQNFLKKENKNEKVIEHIMEDLDTNADKQLSFEEFIMLMAALTWASHEKMHEGDEGPGHHHKPGLGEGTP | not significantly different |
| S100A9Q73A: purified recombinant S100A9 mutant, alanine instead of Q73 (protein) MTCKMSQLERNIETIINTFHQYSVKLGHPDTLNQGEFKELVRKDLQNFLKKENKNEKVIEHIMEDLDTNADKALSFEEFIMLMARLTWASHEKMHEGDEGPGHHHKPGLGEGTP | weaker binding |
| S100A9E77A: purified recombinant S100A9 mutant, alanine instead of E77 (protein) MTCKMSQLERNIETIINTFHQYSVKLGHPDTLNQGEFKELVRKDLQNFLKKENKNEKVIEHIMEDLDTNADKQLSFAEFIMLMARLTWASHEKMHEGDEGPGHHHKPGLGEGTP | weaker binding |
| S100A9D65A: purified recombinant S100A9 mutant, alanine instead of D65 (protein) MTCKMSQLERNIETIINTFHQYSVKLGHPDTLNQGEFKELVRKDLQNFLKKENKNEKVIEHIMEALDTNADKQLSFEEFIMLMARLTWASHEKMHEGDEGPGHHHKPGLGEGTP | weaker binding |
| S100A9K72A: purified recombinant S100A9 mutant, alanine instead of K72 (protein) MTCKMSQLERNIETIINTFHQYSVKLGHPDTLNQGEFKELVRKDLQNFLKKENKNEKVIEHIMEDLDTNADAQLSFEEFIMLMARLTWASHEKMHEGDEGPGHHHKPGLGEGTP | not significantly different |
